The target in experiment [1] is HIV-1 gp41 protein (surface plasmon resonance) (HIV-1). Kind of experiment: SPR; BIAcore 3000; HIV-1 proteins amine coupled to CM-5 chips (50 µg/mL in 20 mM sodium acetate); serially diluted antibody injected at 30 µL/minute for about 100 s in HBS (10 mM HEPES, 150 mM NaCl, 3 mM EDTA).
Experiment [2] has as its target HIV-1 gp120 protein (surface plasmon resonance) (HIV-1). The description is as above.

For “trispecific antibody iMab + PRO140 + 10E8”, in experiment [1], the Kd was 6.12 nM.
The substance “trispecific antibody iMab + PRO140 + PGT121” came in with a Kd in experiment [2] of 0.59 nM.
On the same count and under the same terms, next, “trispecific antibody iMab + PRO140 + PGDM1400”: 0.46 nM.
